# Paper PMC7001585 (Proteins, 2017)
# Biological target: the molecule itself
# Test: crystal structure
protein,measurement,value
"CepR2 ligand binding domain (CepR2-LBD, 1-170) (domain or fragment, selenomethionine (SeMet-substituted protein; SeMet53 named)) SNAMDLTILHDCFDALQRAPTAEAAFPPIAAAAAALGFRYCVYGLRRTLPLARPDMQIVGNHPREWEHRYVKFGYVTIDPIIKRVASQPRPVVWNAFDEPGDTAFWHDAACFGMRYGWSHGGYDRAGNLGVLTLVRDTTPLDADEISRLRAPCASLSHAAHAYLMPRLADPIA",stoichiometry N,2
